What was measured:
[1] = molecular target: T1, Presegetalin A1[14,32]A19V
T1 chain: GVPVWVFQAKDVENASAPV

[2] = molecular target: T2, Presegetalin A1[14,32]G14A
T2 chain: AVPVWAFQAKDVENASAPV

Presegetalin A1[14,32] = molecular target: T3, Presegetalin A1[14,32]
T3 chain: GVPVWAFQAKDVENASAPV

[3] = molecular target: T4, Presegetalin A1[14,32]P16A
T4 chain: GVAVWAFQAKDVENASAPV

[4] = molecular target: T5, Presegetalin A1[14,32]V15A
T5 chain: GAPVWAFQAKDVENASAPV

[5] = molecular target: T6, Presegetalin A1[14,32]V17A
T6 chain: GVPAWAFQAKDVENASAPV

[6] = molecular target: T7, Presegetalin A1[14,32]W18A
T7 chain: GVPVAAFQAKDVENASAPV

[7] = molecular target: T8, Presegetalin A1[14,32] P16p W18A
T8 chain: GVPVAAFQAKDVENASAPV

[8] = molecular target: T9, Presegetalin A1[14,32] P16p W18a
T9 chain: GVPVAAFQAKDVENASAPV

B1: Dianthus superbus PCY1-c250 (recombinant) (protein)
chain: MASCGFTKPLHYPTARRDETVVDDYFGLKVADPYRWLEDRDSEETKKFVEDQVKFTDSVLEECELIGKVKQKIIDYVSFPRWSVPLRRANKYFHFYNSGLQSQNVYRMQDGLDGKPEVICDPNLREDGRTGLSVYSVSEDAKYFAFGIAEGFTEWLTIRVMRTEDRSMLPDCLTEVKFTTVHWTHDNKGFFYCAYPPLEEGQDHMVHASISQEARYHYLGTDQSEDILCWKDPENPTHHFRSYFTDDGKYFVLYILEGCDKKNKVYCLDLTKLPNGPESLRGREGSAPFIKLVDSFDASYTVIANDDSVFTLLTDKDAKRCKLVRVDLNNPSVWTDVIPESKDLLESAHAVNGNQLLLRYLRDVKHVLELRDLESGSLLHSIPIDIGAVDGINARRGDSIVFFRFTSILTPGIIYQCDLKNDPTQLNIFRESLVPGFDRSEFEVKQVFVPGKDGTKIPAFIAARKGISLDGSHPCEMHGYGGYGHNMMPTFSASRLVFLKHLGGVFCLANIRGGGEYGVDWHKAGARENKQTSFDDFISSAEFLVSSGYSAPKKICIEGGSNGGLLIAVCITQRPDLFGCAEPNCGPMDMLRFHKFTLGYLWTDEYGNPDNEEEFNWLIKYSPLHNVRRPWEQPGHEQTQYPATMIITADHDDRVVPMHSYKMIATMQHVLCTSLENSPQKYPIICRIQRKASHYGRSTMVQIAEVADRYGFMAKALNATWTD
- activity on alanine scan mutant (LC/MS) [1]: D. superbus PCY1-c250 activity was comparable to that of S. vaccaria PCY1
- cyclic peptide product (LC/MS) [2]: there was no detectable cyclic peptide made from No. 7 by D. superbus PCY1-c250
- production of segetalin A (LC/MS) (Presegetalin A1[14,32]): show strong enzymatic activity ... similar to that of S. vaccaria PCY1
- activity on alanine scan mutant (LC/MS) [3]: D. superbus PCY1-c250 activity was comparable to that of S. vaccaria PCY1
- activity on alanine scan mutant (LC/MS) [4]: D. superbus PCY1-c250 activity was comparable to that of S. vaccaria PCY1
- activity on alanine scan mutant (LC/MS) [5]: D. superbus PCY1-c250 activity was comparable to that of S. vaccaria PCY1
- cyclic peptide product (LC/MS) [6]: D. superbus PCY1-c250 appeared to produce relatively more cyclic peptide than did S. vaccaria PCY1 from No. 11

B2: Dianthus superbus PCY1-c1141 (recombinant) (protein)
chain: MAVSCGFTKTLHYPPVRRDETVVDDYFGLKIADPYRWLEDLNSEETKKFVDDQVKFTESVLEECELIGKVKQKIIDYVSFPRWSVPLRRANKYFHFYNSGLQSQNVYRMQDGLDGKPEVVYDPNLREGGRTGLTLYSVSEDANYFAFGIAEGFTEWLTIRVMRIEDRSMLPDCITGVKHSGIHWTHDNKGFFYCPYPPLEEGQDLMIHPSMSQEVRYHFIGTDQSEDILCWKDTVNPTHHLKSYFTDDGKYFVLYILEGCNNMNKVYCLDLTELPNGPESLRGREGSAPFIKLVDSFDALYTAIANDGSVFTFLTDKDATRRKLVRVDLNNPSVWTDVLPESKDLLESAHAVNGNQLLIRYLSDVKHILELRDLESGSLLHRIPIDIGAVDGTINARRGDSVVFFKFTSILTPSIIYQCDLKNDPPQLKIFRESVVPGFDRSEFEVKQLFAPSKDGTMIPTFVAARKGISLDGSHPCEMHGYGAYGQCMMPTFSASRLVFLKHLGGVFCLANIRGGGEYGVEWHKAGARENKQNSYDDFIASAEFLVSSGYTAPKKICIEGGSNGGLLIAVCITQRPDLFGCAEPNCGPMDMIRFHHFTQGYVVMSEYGSPDKEEEFNWLIKYSPLHNVRRPWEQPGHEQTQYPATMIITADHDDRVVPFHSYKMIATMQHVLCTSLENSPQKFPIICRIQRNASHYGRATMVQIAEVADRYGFMAKALNATWTD
- cyclic peptide product (LC/MS, MS/MS) [7]: S. vaccaria PCY1 and D. superbus PCY1-c1141 made cyclic peptides from both No. 31 and No. 32
- cyclic peptide product (LC/MS, MS/MS) [8]: S. vaccaria PCY1 and D. superbus PCY1-c1141 made cyclic peptides from both No. 31 and No. 32
- cyclization (LC/MS) [8]: also demonstrated the ability to cyclize alternating D- and L-amino acid polypeptide substrates (FIG. 12a) in a similar manner to S. vaccaria PCY1
- relative activity (LC/MS) [8]: D. superbus PCY1-c1141 was relatively more active on No. 32 than was S. vaccaria PCY1
- production of segetalin A (LC/MS) (Presegetalin A1[14,32]): show strong enzymatic activity ... similar to that of S. vaccaria PCY1

B3: Silene vulgaris PCY1-c150 (recombinant) (protein)
chain: MASSAFSKPLNYPPVRRDETVVNDYFGVKVADPYRWLEDQEGEETIEFVDNQVKLADSVLEECELRDKIKQKITDLVNFPRCGVPFKRADKYFHFYNSGLQAQNVLHMQDDLDGKPEVLYDPNLREGGRSGLHQYAVSEDAKYLAFGINSGFSEWLTIKVMRIEDRSVLPDSLSWVKFSGIHWTHDSKGFFFSPYPPATEGLEVGMKTNSSFNQELRYHFLGTDESEDVLCWRDPENPTHHLKSDLTADGKYLLLYISAGCDATNKVYYMDLTTLPNGLEGLRGGKDLLPFKRLIDEFDATYTAIANDGSVFTFLTNKDAPRNKIVRVDLNNPDIWTEVIPESKKDVLESAHAVNGNQLLVRYLSDVKHILEVRDLESGSLLHRLPVDLGVIDGITARPQDSVVFFKFTSFLTPTIIYQCDLKEDSPQLKIFRESVVPEFDRSEFEVKQVFVSAKDGTKIPMFIVARKGISLDGSHPCELHGYGGFSISIKPFFSASRIVILKHLDAVFCVANIRGGGEYGEEWHQAGWREKKQIVFDDFISSAEYLVSSGYTQPQKLSIEGGSNGGLLVAACINQRPDLFGCAQANCGVMDMLRFHKFTLGYLWTSDYGCSEKEEDFNWLIKYSPIHNVRRPWEHSKNPQLQYPAVMILTADHDDRVVPLHSFKLLATLQHVLCTSLEDSPQKNPIIARIERKASHCGRATMKQIDEAADRYAFMAKALRATWTD
- production of segetalin A (LC/MS) (Presegetalin A1[14,32]): has the same enzymatic activity as that of S. vaccaria PCY1, (FIG. 7d) albeit weaker than that of S. vaccaria PCY1 for production of segetalin A

From patent US20140363844
